Results: paper PMC2854584

Key:
[1] = biological target: CD4-Ig; assay: pull-down
[2] = biological target: HIV-1YU2 gp41 transmembrane envelope glycoprotein (HIV-1 YU2) (UniProt P35961); assay: gp120-gp41 association index
[3] = biological target: CCR5 (UniProt P51681); assay: radioligand binding
[4] = biological target: soluble CD4 (UniProt P01730); assay: SPR

Substance	CD4-Ig binding (relative to wild type) [1]	association index (relative to wild type) [2]	further results
HIV-1YU2 gp120 A60G (natural protein)	1.46	–	–
HIV-1YU2 gp120 A73S (natural protein)	1.19	–	–
HIV-1YU2 gp120 A221G (natural protein)	0.76	–	–
HIV-1YU2 gp120 D57A (natural protein)	0.91	0.62	–
HIV-1YU2 gp120 D78A (natural protein)	1.13	–	–
HIV-1YU2 gp120 D107A (natural protein)	0.66	–	fold reduction of CCR5 binding against wt gp120 [3]: 2 fold; Kd [4]: 74.3 nM; koff [4]: 0.00142 s⁻¹; kon [4]: 19100 M⁻¹ s⁻¹
HIV-1YU2 gp120 D107A/S375W (natural protein)	0.76	0.61	–
HIV-1YU2 gp120 D107Q (natural protein)	0.69	–	–
HIV-1YU2 gp120 D113A (natural protein)	1.79	–	–
HIV-1YU2 gp120 E47A (natural protein)	–	0.64	–
HIV-1YU2 gp120 E91A (natural protein)	1.45	–	–
HIV-1YU2 gp120 F53A (natural protein)	0.29	0.25	–
HIV-1YU2 gp120 F210A (natural protein)	–	1.33	–
HIV-1YU2 gp120 F223A (natural protein)	0.85	–	–
HIV-1YU2 gp120 H66A (natural protein)	–	–	Kd [4]: 172 nM; koff [4]: 0.000569 s⁻¹; kon [4]: 3320 M⁻¹ s⁻¹
HIV-1YU2 gp120 H66A/S375W (natural protein)	–	–	Kd [4]: 7.67 nM; koff [4]: 5.02e-06 s⁻¹; kon [4]: 655 M⁻¹ s⁻¹
HIV-1YU2 gp120 H72A (natural protein)	1.11	–	–
HIV-1YU2 gp120 I108A (natural protein)	1.48	–	–
HIV-1YU2 gp120 I109A (natural protein)	0.49	–	–
HIV-1YU2 gp120 L52A (natural protein)	0.23	0.25	–
HIV-1YU2 gp120 L111A (natural protein)	–	0.28	fold reduction of CCR5 binding against wt gp120 [3]: 2 fold; Kd [4]: 32.3 nM; koff [4]: 0.000426 s⁻¹; kon [4]: 13200 M⁻¹ s⁻¹
HIV-1YU2 gp120 L111A/S375W (natural protein)	1.32	–	Kd [4]: 1.12 nM; koff [4]: 1.92e-05 s⁻¹; kon [4]: 17100 M⁻¹ s⁻¹
HIV-1YU2 gp120 L111F (natural protein)	–	–	Kd [4]: 13.3 nM; koff [4]: 0.000204 s⁻¹; kon [4]: 15300 M⁻¹ s⁻¹
HIV-1YU2 gp120 L111W (natural protein)	–	–	Kd [4]: 621 nM; kon [4]: 2090 M⁻¹ s⁻¹
HIV-1YU2 gp120 L116A (natural protein)	0.67	–	–
HIV-1YU2 gp120 M104A (natural protein)	1.25	–	–
HIV-1YU2 gp120 N80A (natural protein)	1.24	0.65	–

Substance	CD4-Ig binding (relative to wild type) [1]	association index (relative to wild type) [2]	further results
HIV-1YU2 gp120 N99A (natural protein)	0.97	0.7	–
HIV-1YU2 gp120 P76A (natural protein)	1.02	0.64	–
HIV-1YU2 gp120 P79A (natural protein)	1.29	0.64	–
HIV-1YU2 gp120 P212A (natural protein)	0.65	–	–
HIV-1YU2 gp120 Q82A (natural protein)	1.12	1.03	–
HIV-1YU2 gp120 Q103A (natural protein)	1.15	1.07	–
HIV-1YU2 gp120 Q103R (natural protein)	0.74	–	–
HIV-1YU2 gp120 Q114N (natural protein)	1.09	0.74	–
HIV-1YU2 gp120 S110N (natural protein)	–	0.66	–
HIV-1YU2 gp120 S110W (natural protein)	–	0.49	–
HIV-1YU2 gp120 S115A (natural protein)	1.36	1.12	–
HIV-1YU2 gp120 S375W (natural protein)	1.12	–	Kd [4]: 0.0469 nM; koff [4]: 6.49e-07 s⁻¹; kon [4]: 13800 M⁻¹ s⁻¹
HIV-1YU2 gp120 T49A (natural protein)	1.14	1.07	–
HIV-1YU2 gp120 T51A (natural protein)	1.02	1.06	–
HIV-1YU2 gp120 T63A (natural protein)	1.79	–	–
HIV-1YU2 gp120 T71A (natural protein)	0.85	–	–
HIV-1YU2 gp120 T77A (natural protein)	1.52	–	–
HIV-1YU2 gp120 V68A (natural protein)	1.12	–	–
HIV-1YU2 gp120 V89A (natural protein)	0.97	–	–
HIV-1YU2 gp120 W69L (natural protein)	0.64	0.89	fold reduction of CCR5 binding against wt gp120 [3]: 2 fold; Kd [4]: 54.2 nM; koff [4]: 0.000526 s⁻¹; kon [4]: 9690 M⁻¹ s⁻¹
HIV-1YU2 gp120 W69L/L111W (natural protein)	–	0.28	Kd [4]: 871 nM; koff [4]: 0.000483 s⁻¹; kon [4]: 554 M⁻¹ s⁻¹
HIV-1YU2 gp120 W69L/S375W (natural protein)	1.11	0.81	Kd [4]: 0.846 nM; koff [4]: 9.98e-06 s⁻¹; kon [4]: 11800 M⁻¹ s⁻¹
HIV-1YU2 gp120 W96A (natural protein)	0.66	0.65	–
HIV-1YU2 gp120 W112A (natural protein)	0.25	–	–
HIV-1YU2 gp120 W437R (natural protein)	–	0.64	–
HIV-1YU2 gp120 Y61A (natural protein)	1.33	0.89	–
HIV-1YU2 gp120 exterior envelope glycoprotein, wild-type (from UniProt P35961 32-498) (natural protein)	1	–	–
